Measurements taken from article doi:10.1101/2020.08.10.245522.

Assays:
[1] = target: A14C/E45C disulfide crosslinked CA tubes (HIV-1); experiment: co-sedimentation
[2] = target: CA hexamer-2 (HIV-1 | not stated); experiment: ITC
[3] = target: CA hexamer-2 (HIV-1 | not stated); experiment: SEC-MALS

Sequence of NUP153^1401-1475 (P49790 1401-1475): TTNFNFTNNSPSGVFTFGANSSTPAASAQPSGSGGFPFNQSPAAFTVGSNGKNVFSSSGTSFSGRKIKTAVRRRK

Substance | percent bound to CA tubes [1] [%] | also measured
NUP153^1411-1465 (from UniProt P49790 1411-1464) (domain or fragment) | 25 | 
NUP153^1411-1475/1425-1464Δ peptide (25 aa) (from UniProt P49790 1411-1475) |  | Kd [2]: 0.8 µM
NUP153^1401-1475 (from UniProt P49790 1401-1475) (domain or fragment) |  | stoichiometry N (NUP153^1401-1475 per hexamer-2) [3]: 1
NUP153^1465-1475 (from UniProt P49790 1465-1475) (domain or fragment) | 50 | 
